According to publication PMC5589798, “Alpha subunit-dependent glycine receptor clustering and regulation of synaptic receptor numbers” (Scientific Reports, 2017):

Tests used:
[1] = target: endogenous α subunits of spinal cord neurons; test: PALM-based single molecule counting; fixed lentivirus-infected spinal cord neurons; bursts of Dendra2 detections counted in 120 nm clusters in sparse areas of the extrasynaptic plasma membrane, binomial fit
[2] = target: the molecule itself; test: PALM-based single molecule counting; fixed COS-7 cells expressing mEos2-gephyrin; cluster diameter 150 nm, burst length < 60 s, binomial fit
[3] = target: T1, endogenous extrasynaptic GlyRs (labelled by QDs on endogenous GlyRα1) (mouse (endogenous in spinal cord …, UniProt Q64018 29-457; P48168 23-496); test: PALM-based single molecule counting at QD-labelled receptors; fixed mouse spinal cord neurons; endogenous GlyRα1 labelled with mAb2b and Fab'-QD605, mEos2-gephyrin bursts counted at the QD sites in the extrasynaptic membrane; details: partners not purified
T1 construct: endogenous glycine receptor beta subunit of mouse spinal cord neurons; the discussion calls extrasynaptic GlyRs α3:β2 heteromers; Only the α1 subunit was labelled; also called endogenous GlyRs; receptor complexes; source: endogenous, mouse spinal cord neurons, fixed cells; copies: 3 + 2
T1 sequence (P48168 23-496, one chain of several): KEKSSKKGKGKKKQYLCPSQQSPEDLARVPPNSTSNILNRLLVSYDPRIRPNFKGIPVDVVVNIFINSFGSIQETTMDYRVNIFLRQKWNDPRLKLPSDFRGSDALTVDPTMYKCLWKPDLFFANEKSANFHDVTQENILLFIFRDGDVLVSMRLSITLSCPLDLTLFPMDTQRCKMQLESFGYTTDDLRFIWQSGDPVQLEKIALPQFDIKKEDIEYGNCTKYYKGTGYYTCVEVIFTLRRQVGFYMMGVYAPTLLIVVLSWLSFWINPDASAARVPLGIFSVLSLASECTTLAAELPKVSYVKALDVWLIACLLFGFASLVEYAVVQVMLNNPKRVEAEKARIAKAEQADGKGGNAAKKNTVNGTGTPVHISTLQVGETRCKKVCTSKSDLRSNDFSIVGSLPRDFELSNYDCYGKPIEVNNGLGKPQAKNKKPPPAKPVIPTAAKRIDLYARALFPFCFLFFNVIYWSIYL

[4] = target: T2, endogenous GlyRβ subunits of spinal cord neurons ( (endogenous in rat or mouse …, UniProt P20781 23-496)); test: PALM-based single molecule counting; fixed lentivirus-infected spinal cord neurons; bursts of Dendra2 detections counted in 120 nm clusters in sparse areas of the extrasynaptic plasma membrane, binomial fit; details: partners not purified
T2 construct: endogenous glycine receptor beta subunit of cultured spinal cord neurons; also called endogenous counterparts; source: endogenous, cultured spinal cord neurons, fixed cells
T2 sequence (P20781 23-496): as the sequence (P48168 23-496, one chain of several) above, with P23A counted along it

untagged GlyRβ = target: T3, untagged GlyRβ (UniProt P48167 23-497); test: PALM-based single molecule counting; fixed transfected COS-7 cells; bursts of Dendra2 detections counted in 120 nm clusters, binomial fit; Dendra2-GlyR subunits alone or with untagged subunits; details: partners not purified
T3 construct: glycine receptor beta subunit, untagged; also called untagged β subunits; non-fluorescent subunits; source: COS-7, transfected, in cells
T3 sequence (P48167 23-497): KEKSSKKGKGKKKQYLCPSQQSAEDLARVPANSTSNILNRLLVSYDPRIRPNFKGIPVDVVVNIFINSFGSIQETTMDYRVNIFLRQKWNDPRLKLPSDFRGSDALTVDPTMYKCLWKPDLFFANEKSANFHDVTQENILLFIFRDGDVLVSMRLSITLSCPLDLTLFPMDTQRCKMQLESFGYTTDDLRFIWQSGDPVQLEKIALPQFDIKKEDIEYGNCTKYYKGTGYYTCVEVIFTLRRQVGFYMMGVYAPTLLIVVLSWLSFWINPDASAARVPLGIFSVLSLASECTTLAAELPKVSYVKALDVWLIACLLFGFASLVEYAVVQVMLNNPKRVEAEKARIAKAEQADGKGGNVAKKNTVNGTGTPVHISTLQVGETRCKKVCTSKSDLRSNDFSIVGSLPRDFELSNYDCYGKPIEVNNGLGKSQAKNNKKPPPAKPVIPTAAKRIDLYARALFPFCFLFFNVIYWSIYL

For “Dendra2-GlyRβ (FU-SP-myc-Dendra2-GlyRβ) (from UniProt P48167-1 23-497) (receptor)”, the stoichiometry N [1] was 1.5 α:β (3:2).

B1: mEos2-gephyrin (FU-mEos2-gephyrin) (natural protein, UniProt Q03555 1-768, looked up)
chain: MATEGMILTNHDHQIRVGVLTVSDSCFRNLAEDRSGINLKDLVQDPSLLGGTISAYKIVPDEIEEIKETLIDWCDEKELNLILTTGGTGFAPRDVTPEKFPTFPFCGLQKGATKEVIEREAPGMALAMLMGSLNVTPLGMLSRPVCGIRGKTLIINLPGSKKGSQECFQFILPALPHAIDLLRDAIVKVKEVHDELEDLPSPPPPLSPPPTTSPHKQTEDKGVQCEEEEEEKKDSGVASTEDSSSSHITAAALAAKIPDSIISRGVQVLPRDTASLSTTPSESPRAQATSRLSTASCPTPKQIRRPDESKGVASRVGSLKVQSRCSSKENILRASHSAVDITKVARRHRMSPFPLTSMDKAFITVLEMTPVLGTEIINYRDGMGRVLAQDVYAKDNLPPFPASVKDGYAVRAADGPGDRFIIGESQAGEQPTQTVMPGQVMRVTTGAPIPCGADAVVQVEDTELIRESDDGTEELEVRILVQARPGQDIRPIGHDIKRGECVLAKGTHMGPSEIGLLATVGVTEVEVNKFPVVAVMSTGNELLNPEDDLLPGKIRDSNRSTLLATIQEHGYPTINLGIVGDNPDDLLNALNEGISRADVIITSGGVSMGEKDYLKQVLDIDLHAQIHFGRVFMKPGLPTTFATLDIDGVRKIIFALPGNPVSAVVTCNLFVVPALRKMQGILDPRPTIIKARLSCDVKLDPRPEYHRCILTWHHQEPLPWAQSTGNQMSSRLMSMRSANGLLMLPPKTEQYVELHKGEVVDVMVIGRL
notes: gephyrin; neither species nor isoform is stated; In neurons, endogenous gephyrin is also present and dilutes the detected mEos2-gephyrin; source: COS-7, transfected, in cells; spinal cord neurons, lentivirus infected, in cells
B1 was tested, and the “stoichiometry N” value [2] was 3 and the “stoichiometry N” value [3] was 1 gephyrin trimer per receptor complex.

B2: Dendra2-GlyRα1 (FU-SP-myc-Dendra2-GlyRα1) (receptor, rat, UniProt P07727-1 29-457, looked up)
chain: ARSAPKPMSPSDFLDKLMGRTSGYDARIRPNFKGPPVNVSCNIFINSFGSIAETTMDYRVNIFLRQQWNDPRLAYNEYPDDSLDLDPSMLDSIWKPDLFFANEKGAHFHEITTDNKLLRISRNGNVLYSIRITLTLACPMDLKNFPMDVQTCIMQLESFGYTMNDLIFEWQEQGAVQVADGLTLPQFILKEEKDLRYCTKHYNTGKFTCIEARFHLERQMGYYLIQMYIPSLLIVILSWISFWINMDAAPARVGLGITTVLTMTTQSSGSRASLPKVSYVKAIDIWMAVCLLFVFSALLEYAAVNFVSRQHKELLRFRRKRRHHKSPMLNLFQDDEGGEGRFNFSAYGMGPACLQAKDGISVKGANNNNTTNPAPAPSKSPEEMRKLFIQRAKKIDKISRIGFPMAFLIFNMFYWIIYKIVRREDVHNK
notes: rat glycine receptor alpha-1 subunit, isoform a; Five copies hold for the homomeric receptor (expressed alone in COS-7); also called homomeric Dendra2-GlyRα1; source: COS-7, transfected (FuGENE 6), in cells; spinal cord neurons, lentivirus infected, in cells; not shown: myc, N-terminal, kept; Dendra2, N-terminal, kept
B2 was tested, and the “stoichiometry N” value [4] was 1.5 α:β (3:2).

B3: Dendra2-GlyRα3 (FU-SP-myc-Dendra2-GlyRα3L) (receptor, human, UniProt O75311-1 34-464, looked up)
chain: ARSRSAPMSPSDFLDKLMGRTSGYDARIRPNFKGPPVNVTCNIFINSFGSIAETTMDYRVNIFLRQKWNDPRLAYSEYPDDSLDLDPSMLDSIWKPDLFFANEKGANFHEVTTDNKLLRIFKNGNVLYSIRLTLTLSCPMDLKNFPMDVQTCIMQLESFGYTMNDLIFEWQDEAPVQVAEGLTLPQFLLKEEKDLRYCTKHYNTGKFTCIEVRFHLERQMGYYLIQMYIPSLLIVILSWVSFWINMDAAPARVALGITTVLTMTTQSSGSRASLPKVSYVKAIDIWMAVCLLFVFSALLEYAAVNFVSRQHKELLRFRRKRKNKTEAFALEKFYRFSDMDDEVRESRFSFTAYGMGPCLQAKDGMTPKGPNHPVQVMPKSPDEMRKVFIDRAKKIDTISRACFPLAFLIFNIFYWVIYKILRHEDIHQQQD
notes: human glycine receptor alpha-3 subunit, long isoform (α3L); Five copies hold for the homomeric receptor (expressed alone in COS-7); also called homomeric Dendra2-GlyRα3; source: COS-7, transfected (FuGENE 6), in cells; spinal cord neurons, lentivirus infected, in cells; not shown: myc, N-terminal, kept; Dendra2, N-terminal, kept
For B3, the “stoichiometry N” value [4] was 1.5 α:β (3:2) and the “stoichiometry N” value (untagged GlyRβ) was 3 α3 subunits per complex.
